Laboratory results from patent US20140377774.

Target: T1, wild-type yeast Ugp1
T1 chain: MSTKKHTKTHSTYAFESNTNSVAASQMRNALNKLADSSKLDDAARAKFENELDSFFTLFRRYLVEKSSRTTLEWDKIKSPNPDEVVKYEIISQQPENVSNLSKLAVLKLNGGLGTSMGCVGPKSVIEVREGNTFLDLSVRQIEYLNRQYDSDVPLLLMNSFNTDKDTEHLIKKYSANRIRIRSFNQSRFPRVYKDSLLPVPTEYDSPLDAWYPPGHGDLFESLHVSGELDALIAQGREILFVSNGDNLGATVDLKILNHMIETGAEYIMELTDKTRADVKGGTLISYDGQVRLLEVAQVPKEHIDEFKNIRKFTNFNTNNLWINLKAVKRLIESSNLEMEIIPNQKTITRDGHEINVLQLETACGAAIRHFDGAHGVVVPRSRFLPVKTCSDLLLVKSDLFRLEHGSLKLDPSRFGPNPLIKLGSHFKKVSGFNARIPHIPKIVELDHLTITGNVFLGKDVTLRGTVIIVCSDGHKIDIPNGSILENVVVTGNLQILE

B1: human PASK (protein)
chain: MEDGGLTAFEEDQRCLSQSLPLPVSAEGPAAQTTAEPSRSFSSAHRHLSRRNGLSRLCQSRTALSEDRWSSYCLSSLAAQNICTSKLHCPAAPEHTDPSEPRGSVSCCSLLRGLSSGWSSPLLPAPVCNPNKAIFTVDAKTTEILVANDKACGLLGYSSQDLIGQKLTQFFLRSDSDVVEALSEEHMEADGHAAVVFGTVVDIISRSGEKIPVSVWMKRMRQERRLCCVVVLEPVERVSTWVAFQSDGTVTSCDSLFAHLHGYVSGEDVAGQHITDLIPSVQLPPSGQHIPKNLKIQRSVGRARDGTTFPLSLKLKSQPSSEEATTGEAAPVSGYRASVWVFCTISGLITLLPDGTIHGINHSFALTLFGYGKTELLGKNITFLIPGFYSYMDLAYNSSLQLPDLASCLDVGNESGCGERTLDPWQGQDPAEGGQDPRINVVLAGGHVVPRDEIRKLMESQDIFTGTQTELIAGGQLLSCLSPQPAPGVDNVPEGSLPVHGEQALPKDQQITALGREEPVAIESPGQDLLGESRSEPVDVKPFASCEDSEAPVPAEDGGSDAGMCGLCQKAQLERMGVSGPSGSDLWAGAAVAKPQAKGQLAGGSLLMHCPCYGSEWGLWWRSQDLAPSPSGMAGLSFGTPTLDEPWLGVENDREELQTCLIKEQLSQLSLAGALDVPHAELVPTECQAVTAPVSSCDLGGRDLCGGCTGSSSACYALATDLPGGLEAVEAQEVDVNSFSWNLKELFFSDQTDQTSSNCSCATSELRETPSSLAVGSDPDVGSLQEQGSCVLDDRELLLLTGTCVDLGQGRRFRESCVGHDPTEPLEVCLVSSEHYAASDRESPGHVPSTLDAGPEDTCPSAEEPRLNVQVTSTPVIVMRGAAGLQREIQEGAYSGSCYHRDGLRLSIQFEVRRVELQGPTPLFCCWLVKDLLHSQRDSAARTRLFLASLPGSTHSTAAELTGPSLVEVLRARPWFEEPPKAVELEGLAACEGEYSQKYSTMSPLGSGAFGFVWTAVDKEKNKEVVVKFIKKEKVLEDCWIEDPKLGKVTLEIAILSRVEHANIIKVLDIFENQGFFQLVMEKHGSGLDLFAFIDRHPRLDEPLASYIFRQLVSAVGYLRLKDIIHRDIKDENIVIAEDFTIKLIDFGSAAYLERGKLFYTFCGTIEYCAPEVLMGNPYRGPELEMWSLGVTLYTLVFEENPFCELEETVEAAIHPPYLVSKELMSLVSGLLQPVPERRTTLEKLVTDPWVTQPVNLADYTWEEVFRVNKPESGVLSAASLEMGNRSLSDVAQAQELCGGPVPGEAPNGQGCLHPGDPRLLTS
  Ugp1 phosphorylation (Western blot with phospho-specific Ugp1 antibody): transfected with human PASK and wild-type yeast Ugp1 (to promote phosphorylation) (lane 1) ... the phospho-Ugp1 band in lane 1
